The values below come from patent US11464867B2, “Multimeric elastin-like polypeptides” (University of Southern California, priority 2018, dated 2022).

For one series, the system named is HeLa cells. Briefly: HeLa cell uptake, co-localization with lysosomes (confocal microscopy). It counts as cell-based. The note with it: 30 μM rhodamine-labeled ELP; 120 min; LysoTracker Green. How it is done: Lysosomes were labeled by LysoTracker Green® having the structure:
In order to further validate the potential efficacy of CA192 working as a potent drug binding domain, an in vitro cell uptake study was performed. Briefly, CA192 and A192 was labeled with rhodamine and HeLa cell lysosome with LysoTracker Green (LTG)® having the structure as described herein. For the treatment group, HeLa cells were incubated with 30 μM of rhodamine-labeled (rh)-CA192 and 70 nM of LTG for 120 min. For the control group, HeLa cells were incubated with 30 μM of rhodamine-labeled (rh)-A192 and 70 nM of LTG for 120 min. Cells were then rinsed with warm HBSS three times, maintained in the fresh culture medium, and imaged by confocal microscopy. Images were acquired using a Zeiss laser scanning microscope 510 Meta NLO confocal imaging system equipped with Argon, red HeNe, green HeNe laser, and a Coherent Chameleon Ti-Sapphire laser (LSM) mounted on a vibration-free table (Carl Zeiss, Thornwood, N.Y.). All images were acquired using a Plan-Apochromat 63× Oil immersion lens with a working distance of 0.19 mm.

Series [1] in a line: Dynamic light scattering (DLS) hydrodynamic radius and stability. It counts as physicochemical. The note with it: DLS intensity; 20 μM. How it is done: FIGS. 5A-5D: CA192 (SEQ ID NO: 3) has a good stability in terms of hydrodynamic radius. There are two fractions present in the CA192 (SEQ ID NO: 3) solution: an aggregated form and dimeric form. A dimerized form has similar hydrodynamic radius, Rh as A192. […] Drug-loaded CA192 (SEQ ID NO: 3) has a mean Rh of 64.5±0.5 nm (p<0.05). […] (FIG. 5C) Size Exclusion Chromatography (SEC) was conducted to fractionate CA192 (SEQ ID NO: 3) depending on their particle size. Two fractions were observed. […] In contrast, the fraction 1 contains a mixture of larger aggregates.
The hydrodynamic radius (Rh) of both the loaded and unloaded fusion protein, along with plain A192, was measured via dynamic light scattering (DLS) using a DynaPro Plate Reader II from Wyatt Technology. Before the DLS measurement, solutions were filtered through […] pore size filters. The concentration of each solution was then adjusted to 20 μM. 60 μL from each sample was pipetted into three different wells on the plate reader and covered by 15 μL mineral oil each to avoid solvent evaporation. […] Briefly, the fusion solution was incubated at 37° C. for different periods of time up to 48 h and the mean Rh of CA192 at these different time points was measured with DLS. […] (FIG. 5D) Through measuring the CA192 concentration of both fractions, Applicants determined that 20.8% by mass in solution is represented by the multimerized particles. […]

The nature of series [2]: ATRA encapsulation in 4PA, two phase method, HPLC. It counts as physicochemical. The note with it: control ELP. The source says: FIG. 21: SDS PAGE was used to resolve the purified 4PA fusion protein. To formulate ATRA-loaded 4PA, a two phase encapsulation method was adopted. After removing undissolved drug, HPLC was used to quantify 4PA and ATRA concentrations. Encapsulation ratio, defined as CATRA/C4PA was 2.7, theoretical maximum being 4.

Series [3] is described as follows: Phase transition temperature by optical density (UV-Vis, 350 nm) versus temperature. The format is physicochemical. The note with it: mean ± 95% CI, Table 2. How it is done: The temperature with the maximum positive slope was defined as the phase transition temperature for each condition. (FIG. 2B) The concentration-temperature phase diagram was determined for both ELPs, and fit to the following equation: Tt=b−m Log10[CELP].
Both ELPs at different concentrations (5 μM to 100 μM) were subject to a precisely controlled temperature increase from 25 to 75° C. at a rate of 1° C./min. The Tt of ELPs is defined as the temperature at which the first derivative of the optical density with respect to the temperature reaches a maximum.

“And” between values parts separate entries of the source, which are not always exact repeats. Equal entries are not always repeated. “Also recorded” adds a separate entry of the source.

B1: (VPGAG)192 (protein)
chain: VPGAGVPGAGVPGAGVPGAGVPGAGVPGAGVPGAGVPGAGVPGAGVPGAGVPGAGVPGAGVPGAGVPGAGVPGAGVPGAGVPGAGVPGAGVPGAGVPGAGVPGAGVPGAGVPGAGVPGAGVPGAGVPGAGVPGAGVPGAGVPGAGVPGAGVPGAGVPGAGVPGAGVPGAGVPGAGVPGAGVPGAGVPGAGVPGAGVPGAGVPGAGVPGAGVPGAGVPGAGVPGAGVPGAGVPGAGVPGAGVPGAGVPGAGVPGAGVPGAGVPGAGVPGAGVPGAGVPGAGVPGAGVPGAGVPGAGVPGAGVPGAGVPGAGVPGAGVPGAGVPGAGVPGAGVPGAGVPGAGVPGAGVPGAGVPGAGVPGAGVPGAGVPGAGVPGAGVPGAGVPGAGVPGAGVPGAGVPGAGVPGAGVPGAGVPGAGVPGAGVPGAGVPGAGVPGAGVPGAGVPGAGVPGAGVPGAGVPGAGVPGAGVPGAGVPGAGVPGAGVPGAGVPGAGVPGAGVPGAGVPGAGVPGAGVPGAGVPGAGVPGAGVPGAGVPGAGVPGAGVPGAGVPGAGVPGAGVPGAGVPGAGVPGAGVPGAGVPGAGVPGAGVPGAGVPGAGVPGAGVPGAGVPGAGVPGAGVPGAGVPGAGVPGAGVPGAGVPGAGVPGAGVPGAGVPGAGVPGAGVPGAGVPGAGVPGAGVPGAGVPGAGVPGAGVPGAGVPGAGVPGAGVPGAGVPGAGVPGAGVPGAGVPGAGVPGAGVPGAGVPGAGVPGAGVPGAGVPGAGVPGAGVPGAGVPGAGVPGAGVPGAGVPGAGVPGAGVPGAGVPGAGVPGAGVPGAGVPGAGVPGAGVPGAGVPGAGVPGAGVPGAGVPGAGVPGAGVPGAGVPGAGVPGAGVPGAGVPGAGVPGAGVPGAGVPGAGVPGAGVPGAGVPGAGVPGAGVPGAGVPGAGVPGAGVPGAGVPGAGVPGAGVPGAGVPGAGVPGAG
On to B1, for which, in the series with HeLa cells, the co-localization with lysosomes entry is reported as “obvious co-localization with lysosome; also recorded: co-localized with lysosomes; also recorded: co-localizing with lysosomes”. The “mean hydrodynamic radius (Rh)” value in series [1] was 7.3±0.6 nm and 7.3±0.4 nm. The “ATRA peak on HPLC after encapsulation” value in series [2] is “not detectable”. In series [3] (fit Tt = b - m Log10[CELP]), the “Slope, m” value was 8.3 ± 0.28 ° C./Log10(μM). The “Intercept, b” value in series [3] (intercept at 1 μM) stood at 72.3 ± 0.41 °C.
